As a reminder, the Kd is the free concentration of one partner at which half of the binding sites on the other are occupied at equilibrium, for simple one-to-one binding. As usually defined, the koff is the rate constant with which the complex falls apart. By kon is commonly meant the second-order rate constant of association.

Test [1] concerns the target T1, F protein of RSV (Long strain) (RSV (Long strain), UniProt P12568 26-574). Kind of test: cell-based or functional assay.
The target in test [2] is T1, F protein of RSV (Long strain). Kind of test: cell-based or functional assay. This is another data set of the same source.
The target of test [3] is T2, RSV F glycoprotein (NUF4) (respiratory syncytial virus).
T2 chain 1: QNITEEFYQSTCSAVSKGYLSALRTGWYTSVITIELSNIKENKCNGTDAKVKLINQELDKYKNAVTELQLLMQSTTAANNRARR
T2 chain 2: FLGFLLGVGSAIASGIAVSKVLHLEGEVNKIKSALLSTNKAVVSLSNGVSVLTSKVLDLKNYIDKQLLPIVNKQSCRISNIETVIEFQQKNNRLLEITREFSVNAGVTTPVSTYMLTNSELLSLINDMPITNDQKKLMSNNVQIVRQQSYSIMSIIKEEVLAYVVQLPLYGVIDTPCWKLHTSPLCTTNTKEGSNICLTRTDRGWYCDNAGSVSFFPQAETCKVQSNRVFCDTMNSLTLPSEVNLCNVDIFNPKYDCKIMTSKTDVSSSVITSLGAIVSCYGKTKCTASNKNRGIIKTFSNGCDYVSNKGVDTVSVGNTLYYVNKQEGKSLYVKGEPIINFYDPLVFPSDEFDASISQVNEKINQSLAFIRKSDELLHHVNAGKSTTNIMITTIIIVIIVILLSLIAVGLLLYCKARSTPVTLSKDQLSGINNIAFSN
Kind of test: SPR (BIAcore), mAb vs NUF4 (1:1). For orientation: Surface plasmon resonance follows binding to a sensor surface in real time, without labels.

Test [4] addresses T2, RSV F glycoprotein (NUF4). Kind of test: SPR (BIAcore), mAb vs NUF4 (2:1).
A further test concerns the target Bac-F (respiratory syncytial virus). Kind of test: SPR (BIAcore), mAb vs Bac-F (1:1).
Test [5] deals with T3, recombinant C-terminally truncated RSV (A2 strain) F protein (RSV (A2 strain), UniProt P03420 26-524).
T3 construct: extracellular domain; also called truncated F protein; extracellular domain of the F protein from RSV A2
Put plainly: SPR (BIAcore), IgG over immobilised F.

The target of test [6] is T3, recombinant C-terminally truncated RSV …. Put plainly: SPR (BIAcore), Fab over immobilised F.
Test [7] deals with T1, F protein of RSV (Long strain). Put plainly: cell-based or functional assay. The source holds these as a separate data set.
Test [8] has as its target T3, recombinant C-terminally truncated RSV …. Put plainly: SPR (BIAcore), Fab over immobilised F. This is another data set of the same source.
For a further test, the target named is RSV F protein (purified) (respiratory syncytial virus). Put plainly: SPR (BIAcore), F protein immobilised.

Several values for one entry are separate records, joined by “and”; a condition that tells them apart may be missing. Identical values can stand only once. Like-named read-outs stand apart in the source and are kept apart here.

B1: A1e9 IgG (antibody, V domains shown)
VH: QVTLRESGPALVKPTQTLTLTCTFSGFSLSTAGMSVGWIRQPPGKALEWLADIWWDGKKHYNPSLKDRLTISKDTSKNQVVLKVTNMDPADTATYYCARDMIFNWYFDVWGQGTTVTVSS
VL: DIQMTQSPSTLSASVGDRVTITCSLSSRVGYMHWYQQKPGKAPKLLIYDTFKLSSGVPSRFSGSGSGTEFTLTISSLQPDDFATYYCFQGSGYPFTFGGGTKVEIKR
notes: also called Ale9
Turning to B1, in [1], the “Mean IC50 (Control)” value is 0.0645 µg/mL and the “Mean IC50 (Curve)” value was 0.0625 µg/mL. In test [2], the “Microneutralization IC50, IgG” value is 0.0625 µg/ml and 0.42 nM. In addition, in test [3], the Kd was 0.69 nM, the “fold in parentheses (palivizumab = 1)” value is 13 fold, the koff is 0.000584 s⁻¹ and the association rate constant (kon) amounted to 843000 M⁻¹ s⁻¹. Also, in test [4], binding was put at a Kd of 4.22 nM, the “fold in parentheses (palivizumab = 1)” value amounted to 74 fold, the koff worked out at 0.00139 s⁻¹ and the on-rate constant (kon) came to 329000 M⁻¹ s⁻¹. In the test with Bac-F, binding was characterised by a dissociation constant (Kd) of 0.33 nM and the “fold in parentheses (palivizumab = 1)” value was determined as 12 fold. For the same molecule, in test [5], the dissociation constant (Kd) stood at 0.33 nM, the off-rate (koff) was 0.000143 s⁻¹ and the association rate constant (kon) came out at 433000 M⁻¹ s⁻¹.

B2: A17d4(1) Fab (Fab, V domains shown)
VH: QVTLRESGPALVKPTQTLTLTCTFSGFSLSTAGMSVGWIRQPPGKALEWLADIWWDGKKSYNPSLKDRLTISKDTSKNQVVLKVTNMDPADTATYYCARDMIFNFYFDVWGQGTTVTVSS
VL: DIQMTQSPSTLSASVGDRVTITCLPSSRVGYMHWYQQKPGKAPKLLIYDTMYQSSGVPSRFSGSGSGTEFTLTISSLQPDDFATYYCFQGSGYPFTFGGGTKVEIK
On to B2, for which, in test [1], the “Mean IC50 (Control)” value came to 0.0171 µg/mL and the “Mean IC50 (Curve)” value came to 0.0179 µg/mL. Further, the “Microneutralization IC50, Fab” value in test [2] is 0.0179 µg/ml and 0.36 nM. Further, in [6], the Kd was 0.111 nM, the off-rate constant (koff) is 5.9e-05 s⁻¹ and the kon is 531000 M⁻¹ s⁻¹.

B3: A8c7 Fab (Fab, V domains shown)
VH: QVTLRESGPALVKPTQTLTLTCTFSGFSLSTAGMSVGWIRQPPGKALEWLADIWWDDKKSYNPSLKDRLTISKDTSKNQVVLKVTNMDPADTATYYCARDMIFNWYFDVWGQGTTVTVSS
VL: DIQMTQSPSTLSASVGDRVTITCSPSSRVGYMHWYQQKPGKAPKLLIYDTRYQSSGVPSRFSGSGSGTEFTLTISSLQPDDFATYYCFQGSGYPFTFGGGTKVEIK
As to B3, in test [1], the “Mean IC50 (Control)” value was 0.157 µg/mL and the “Mean IC50 (Curve)” value was found to be 0.177 µg/mL. The “Microneutralization IC50, Fab” value in [2] was 0.177 µg/ml and 3.54 nM. Moreover, in [6], the dissociation constant Kd came to 0.464 nM, the koff turned out to be 0.0003 s⁻¹ and the on-rate constant (kon) was found to be 647000 M⁻¹ s⁻¹.

B4: palivizumab Fab (recombinant) (Fab, V domains shown)
VH: QVTLRESGPALVKPTQTLTLTCTFSGFSLSTSGMSVGWIRQPPGKALEWLADIWWDDKKDYNPSLKSRLTISKDTSKNQVVLKVTNMDPADTATYYCARSMITNWYFDVWGAGTTVTVSS
VL: DIQMTQSPSTLSASVGDRVTITCKCQLSVGYMHWYQQKPGKAPKLLIYDTSKLASGVPSRFSGSGSGTEFTLTISSLQPDDFATYYCFQGSGYPFTFGGGTKLEIK
On to B4, for which the “Microneutralization IC50, Fab” value in test [7] was 27.5 µg/ml and 549 nM; in test [2], 27.5 µg/ml and 549 nM. The dissociation constant (Kd) in test [8] and in [6] was 5.25 nM throughout.

B5: A4b4 Fab (Fab, V domains shown)
VH: QVTLRESGPALVKPTQTLTLTCTFSGFSLSTAGMSVGWIRQPPGKALEWLADIWWDDKKHYNPSLKDRLTISKDTSKNQVVLKVTNMDPADTATYYCARDMIFNFYFDVWGQGTTVTVSS
VL: DIQMTQSPSTLSASVGDRVTITCSASSRVGYMHWYQQKPGKAPKLLIYDTFFLDSGVPSRFSGSGSGTEFTLTISSLQPDDFATYYCFQGSGYPFTFGGGTKVEIK
B5: in [1], the “Mean IC50 (Control)” value is 0.0411 µg/mL and the “Mean IC50 (Curve)” value was determined as 0.0414 µg/mL. The “Microneutralization IC50, Fab” value in test [2] is 0.414 µg/ml and 0.83 nM. In addition, in [6], the dissociation constant Kd was 0.086 nM, the koff was 5.2e-05 s⁻¹ and the on-rate (kon) was found to be 604000 M⁻¹ s⁻¹.

B6: A8c7 IgG (antibody, V domains shown)
VH: QVTLRESGPALVKPTQTLTLTCTFSGFSLSTAGMSVGWIRQPPGKALEWLADIWWDDKKSYNPSLKDRLTISKDTSKNQVVLKVTNMDPADTATYYCARDMIFNWYFDVWGQGTTVTVSS
VL: DIQMTQSPSTLSASVGDRVTITCSPSSRVGYMHWYQQKPGKAPKLLIYDTRYQSSGVPSRFSGSGSGTEFTLTISSLQPDDFATYYCFQGSGYPFTFGGGTKVEIKR
On to B6, for which, in test [1], the “Mean IC50 (Control)” value is 0.0383 µg/mL and the “Mean IC50 (Curve)” value worked out at 0.0337 µg/mL. In addition, in [2], the “Microneutralization IC50, IgG” value is 0.0337 µg/ml and 0.22 nM. Further, in [3], the dissociation constant (Kd) worked out at 0.65 nM, the “fold in parentheses (palivizumab = 1)” value amounted to 13 fold, the koff was found to be 0.000535 s⁻¹ and the on-rate constant (kon) came to 825000 M⁻¹ s⁻¹. Further, in [4], binding was characterised by a dissociation constant (Kd) of 2.65 nM, the “fold in parentheses (palivizumab = 1)” value stood at 118 fold, the koff came out at 0.00114 s⁻¹ and the on-rate (kon) came out at 430000 M⁻¹ s⁻¹. Further, in the test with Bac-F, the dissociation constant (Kd) stood at 0.21 nM and the “fold in parentheses (palivizumab = 1)” value was found to be 19 fold. In addition, in test [5], the dissociation constant (Kd) came to 0.21 nM, the koff was 8.75e-05 s⁻¹ and the on-rate (kon) was 417000 M⁻¹ s⁻¹.

B7: G93Y Fab (Fab, name in Kabat numbering, V domains shown)
VH: QVTLRESGPALVKPTQTLTLTCTFSGFSLSTSGMSVGWIRQPPGKALEWLADIWWDDKKDYNPSLKSRLTISKDTSKNQVVLKVTNMDPADTATYYCARSMITNWYFDVWGQGTTVTVSS
VL: DIQMTQSPSTLSASVGDRVTITCSASSSVGYMHWYQQKPGKAPKLLIYDTSKLASGVPSRFSGSGSGTEFTLTISSLQPDDFATYYCFQGSYYPFTFGGGTKVEIK
For B7, in test [7], the “Microneutralization IC50, Fab” value is 6.26 µg/ml and 125 nM. Further, in [8], the Kd came out at 0.94 nM, the dissociation rate constant (koff) amounted to 0.000153 s⁻¹ and the on-rate (kon) was determined as 162000 M⁻¹ s⁻¹.

B8: G93W Fab (Fab, name in Kabat numbering, V domains shown)
VH: QVTLRESGPALVKPTQTLTLTCTFSGFSLSTSGMSVGWIRQPPGKALEWLADIWWDDKKDYNPSLKSRLTISKDTSKNQVVLKVTNMDPADTATYYCARSMITNWYFDVWGQGTTVTVSS
VL: DIQMTQSPSTLSASVGDRVTITCSASSSVGYMHWYQQKPGKAPKLLIYDTSKLASGVPSRFSGSGSGTEFTLTISSLQPDDFATYYCFQGSWYPFTFGGGTKVEIK
Take B8: in test [7], the “Microneutralization IC50, Fab” value is 6.57 µg/ml and 131 nM. In addition, in test [8], the Kd amounted to 0.93 nM, the koff was 0.00014 s⁻¹ and the on-rate (kon) stood at 150000 M⁻¹ s⁻¹.

B9: 1X-493L1FR Fab (Fab, V domains shown)
VH: QVTLRESGPALVKPTQTLTLTCTFSGFSLSTSGMSVGWIRQPPGKALEWLADIWWDDKKDYNPSLKSRLTISKDTSKNQVVLKVTNMDPADTATYYCARSMITNWYFDVWGQGTTVTVSS
VL: DIQMTQSPSTLSASVGDRVTITCSASSSVGYMHWYQQKPGKAPKLLIYDTSKLASGVPSRFSGSGSGTEFTLTISSLQPDDFATYYCFQGSGYPFTFGGGTKVEIK
notes: also called IX-493L1FR
Consider B9, for which the “Microneutralization IC50, Fab” value in test [7] is 26.3 µg/ml and 526 nM. In the test with RSV F protein (purified), this molecule came in with a koff of 0.00065 s⁻¹ and a kon of 185000 M⁻¹ s⁻¹. Also, in test [8], the Kd worked out at 3.52 nM, the koff came to 0.000651 s⁻¹ and the kon came out at 185000 M⁻¹ s⁻¹.

B10: S52Y Fab (Fab, name in Kabat numbering, V domains shown)
VH: QVTLRESGPALVKPTQTLTLTCTFSGFSLSTSGMSVGWIRQPPGKALEWLADIWWDDKKDYNPSLKSRLTISKDTSKNQVVLKVTNMDPADTATYYCARSMITNWYFDVWGQGTTVTVSS
VL: DIQMTQSPSTLSASVGDRVTITCSASSSVGYMHWYQQKPGKAPKLLIYDTYKLASGVPSRFSGSGSGTEFTLTISSLQPDDFATYYCFQGSGYPFTFGGGTKVEIK
As for B10, the “Microneutralization IC50, Fab” value in [7] is 5.99 µg/ml and 120 nM. Besides, in [8], the Kd came out at 0.74 nM, the koff stood at 0.000125 s⁻¹ and the kon is 170000 M⁻¹ s⁻¹.

B11: S52F Fab (Fab, name in Kabat numbering, V domains shown)
VH: QVTLRESGPALVKPTQTLTLTCTFSGFSLSTSGMSVGWIRQPPGKALEWLADIWWDDKKDYNPSLKSRLTISKDTSKNQVVLKVTNMDPADTATYYCARSMITNWYFDVWGQGTTVTVSS
VL: DIQMTQSPSTLSASVGDRVTITCSASSSVGYMHWYQQKPGKAPKLLIYDTFKLASGVPSRFSGSGSGTEFTLTISSLQPDDFATYYCFQGSGYPFTFGGGTKVEIK
On to B11, for which the “Microneutralization IC50, Fab” value in [7] was 7.27 µg/ml and 1.45 µM. In [8], the Kd was determined as 0.85 nM, the dissociation rate constant (koff) came to 0.000175 s⁻¹ and the kon was 206000 M⁻¹ s⁻¹.

Values taken from patent US20110158985A1 (published 2011).
